Results on 16 molecules are retold here after paper doi:10.1101/324590 (bioRxiv, 2018).

T1: mCHERRY-RIPK3(387-518) (human, UniProt Q9Y572 387-518)
T1 sequence (looked up): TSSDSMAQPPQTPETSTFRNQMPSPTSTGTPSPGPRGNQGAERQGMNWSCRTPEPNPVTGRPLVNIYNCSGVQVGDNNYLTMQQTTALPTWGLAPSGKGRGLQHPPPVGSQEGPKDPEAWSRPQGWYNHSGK

T2: His-Ub-RIPK3(387-518) (human, UniProt Q9Y572 387-518)
T2 sequence (looked up): T1 sequence (looked up)

T3: His-Ub-RIPK1(497-583) (human, UniProt Q13546 497-583)
T3 sequence (looked up): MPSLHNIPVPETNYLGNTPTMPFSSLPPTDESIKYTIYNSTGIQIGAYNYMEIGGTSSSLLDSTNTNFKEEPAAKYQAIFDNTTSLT

B1: RIPK3(387-518) after removal of MBP with thrombin (domain or fragment, human, UniProt Q9Y572 387-518, looked up)
chain: T1 sequence (looked up)
B2: YPet-RIPK3(387-518) (domain or fragment, human, UniProt Q9Y572 387-518, looked up)
chain: T1 sequence (looked up)
B3: RIPK1(497-583) after removal of MBP with thrombin (domain or fragment, human, UniProt Q13546 497-583, looked up)
chain: T3 sequence (looked up)
B4: YPet-RIPK1(497-583) (domain or fragment, human, UniProt Q13546 497-583, looked up)
chain: T3 sequence (looked up)
B5: RIPK1(497-583) after removal of His6-ubiquitin (domain or fragment, human, UniProt Q13546 497-583, looked up)
chain: T3 sequence (looked up)
B6: MBP-RIPK1(497-583) (domain or fragment, human, UniProt Q13546 497-583, looked up)
chain: T3 sequence (looked up)
B7: mCHERRY-RIPK1(497-583) (domain or fragment, human, UniProt Q13546 497-583, looked up)
chain: T3 sequence (looked up)
B8: Alexa488-labelled RIPK1(497-583) (domain or fragment, human, UniProt Q13546 497-583, looked up)
chain: T3 sequence (looked up)
modifications: Alexa Fluor 488, covalent label, site not stated (degree of labelling 5%)
B9: M45(1-90) after removal of MBP with thrombin (domain or fragment, murine cytomegalovirus, UniProt Q06A28 1-90, looked up)
chain: MDRQPKVYSDPDNGFFFLDVPMPDDGQGGQQTATTAAGGAFGVGGGHSVPYVRIMNGVSGIQIGNHNAMSIASCWSPSYTDRRRRSYPKT
B10: YPet-M45 (domain or fragment, murine cytomegalovirus, UniProt Q06A28 1-90, looked up)
chain: B9 chain
B11: His-Ub-M45(1-90) (domain or fragment, murine cytomegalovirus, UniProt Q06A28 1-90, looked up)
chain: B9 chain
B12: mCHERRY-M45(1-90WT) (domain or fragment, murine cytomegalovirus, UniProt Q06A28 1-90, looked up)
chain: B9 chain
B13: MBP-M45(1-90) (domain or fragment, murine cytomegalovirus, UniProt Q06A28 1-90, looked up)
chain: B9 chain
B14: M45(1-90) after removal of His6-ubiquitin (domain or fragment, murine cytomegalovirus, UniProt Q06A28 1-90, looked up)
chain: B9 chain
B15: ECFP-M45(1-90) (domain or fragment, murine cytomegalovirus, UniProt Q06A28 1-90, looked up)
chain: B9 chain
B16: synthetic peptide encompassing the RHIM of M45 (peptide)
peptide: VRIMNGVSGIQIGNHNAMS

Series [1] deals with the molecule itself. Kind of series: sedimentation of insoluble material + transmission electron microscopy.
The next series concerns the target T1, mCHERRY-RIPK3(387-518). Kind of series: single-molecule two-colour fluorescence coincidence spectroscopy.
The series “mCHERRY-M45(1-90WT)” concerns the target B12. Described as above.
The series “mCHERRY-RIPK1(497-583)” concerns the target B7. The description is as above.
Series [2] concerns the molecule itself. Kind of series: negative-stain transmission electron microscopy.
The series “SEC” deals with the molecule itself. Kind of series: SEC. A general note: Size exclusion chromatography separates by hydrodynamic size, large species first.
In the series “ECFP-M45(1-90)” the target is B15. Kind of series: confocal fluorescence microscopy of fibrils.
Series [3] addresses B2. Kind of series: single-molecule two-colour fluorescence coincidence spectroscopy.
Series [4] concerns the molecule itself. Kind of series: thioflavin T fluorescence kinetics.
In another series the target is T2, His-Ub-RIPK3(387-518). Description: fluorescence polarisation. (Fluorescence polarisation rises when a labelled molecule tumbles more slowly, as on binding a larger partner.)
Another series has as its target T3, His-Ub-RIPK1(497-583). Description: fluorescence polarisation.
The target in the series “His-Ub-M45(1-90)” is B11. Description: fluorescence polarisation.
Series [5] deals with the molecule itself. Description: confocal fluorescence microscopy of fibrils.
The series “X-ray fibre diffraction” deals with the molecule itself. Kind of series: X-ray fibre diffraction.
Series [6] deals with the molecule itself. Kind of series: single-molecule two-colour fluorescence coincidence spectroscopy.
The target in series [7] is B2. Kind of series: confocal fluorescence microscopy of fibrils.
Series [8] concerns the molecule itself. Description: transmission electron microscopy + thioflavin T fluorescence.

For B1, the binding result in series [1] was “binds”.

For B2, the binding result in the series with mCHERRY-RIPK3(387-518) is “binds”.

For B3, the binding result in [1] is “binds”.

For B4, the binding result with mCHERRY-M45(1-90WT) and with mCHERRY-RIPK1(497-583) was “binds” each time.

With B5, the binding result in series [2] is listed as “binds”.

As for B6, in the series “SEC”, the binding result was “binds”.

B7: the binding result (with ECFP-M45(1-90); in the series with YPet-RIPK3(387-518) [3]; in series [4]) was “binds” in each case.

B8: the binding result in the series with His-Ub-RIPK3(387-518), with His-Ub-RIPK1(497-583) and with His-Ub-M45(1-90) was “binds” each time.

For B9, the binding result in series [1] is given as “binds”.

With B10, the binding result in series [5] is listed as “binds”.

As to B11, the binding result in the series “X-ray fibre diffraction” is recorded as “binds”.

For the molecule B12, the binding result (in series [6]; with YPet-RIPK3(387-518) [3]) was “binds” throughout.

As for B13, the binding result in the series “SEC” was “binds”.

B14: the binding result in [2] was “binds”.

As for B15, the binding result with YPet-RIPK3(387-518) [7] is “binds”.

As to B16, the binding result in series [8] is “binds”.
